Reference: paper PMC10350922, “Allosteric Inhibitors of Macrophage Migration Inhibitory Factor (MIF) Interfere with Apoptosis-Inducing Factor (AIF) Co-Localization to Prevent Parthanatos”

Biological target: MIF (ZP307-labeled) (human, UniProt P14174 2-115)
Experiment: competition; competes with PA20-Q1, dose-dependent; 5 mM Mg2+; 100 mM Tris, 5 mM MgCl2, 5 mM KCl, pH 8.2; 1 uM labeled MIF, 1 uM PA20-Q1; inhibitor preincubation at rt
Conditions: protein: recombinant; tags: C-terminal His-tagged and untagged both made; chain copies: 3; single strand

B1: PA20 (ssDNA)
DNA: AAAAAAAAAAAAAAAAAAAA
binding result: binds
